According to patent publication US20230220443A1, “CHARACTERIZATION OF S-ADENOSYL-L-METHIONINE-CONSUMING ENZYMES WITH 1-STEP EZ-MTASE: A UNIVERSAL COUPLED-ASSAY” (ALBERT EINSTEIN COLLEGE OF MEDICINE, priority 2017, published 2023):
Read-outs that look alike come from different tables or passages of the source.

Key:
GNMT = GNMT (Rattus norvegicus, UniProt P13255); details: cited from earlier work
NcDIM-5 [1] = molecular target: T1, NcDIM-5 (Neurospora crassa, UniProt Q8X225); details: literature values; cited from earlier work
T1 construct: GST; made in house
T1 sequence (Q8X225 1-331): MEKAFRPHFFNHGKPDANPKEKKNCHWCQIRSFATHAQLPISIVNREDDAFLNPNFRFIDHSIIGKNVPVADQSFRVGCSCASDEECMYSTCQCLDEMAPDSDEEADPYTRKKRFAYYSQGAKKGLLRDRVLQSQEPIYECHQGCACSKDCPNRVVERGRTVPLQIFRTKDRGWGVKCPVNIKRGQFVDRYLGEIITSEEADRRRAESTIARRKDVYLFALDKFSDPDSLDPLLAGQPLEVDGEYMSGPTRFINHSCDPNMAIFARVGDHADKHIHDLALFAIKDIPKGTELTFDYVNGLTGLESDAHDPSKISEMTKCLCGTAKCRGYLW

NcDIM-5 [2] = molecular target: T1, NcDIM-5; assay: Reported (literature) NcDIM-5 kinetics; type: biochemical; details: from reported values lit. (53)
CePRMT5 [3] = molecular target: T2, CePRMT5 (Caenorhabditis elegans, UniProt P46580); assay: 1-Step EZ-MTase UV-based coupled assay, CePRMT5 kinetics; type: biochemical; details: pH=7.60, co-substrate saturating, 4 μM TM0936; 263 nm (282 nm for 8-aza-SAM)
T2 construct: made in house
T2 sequence (P46580 1-734): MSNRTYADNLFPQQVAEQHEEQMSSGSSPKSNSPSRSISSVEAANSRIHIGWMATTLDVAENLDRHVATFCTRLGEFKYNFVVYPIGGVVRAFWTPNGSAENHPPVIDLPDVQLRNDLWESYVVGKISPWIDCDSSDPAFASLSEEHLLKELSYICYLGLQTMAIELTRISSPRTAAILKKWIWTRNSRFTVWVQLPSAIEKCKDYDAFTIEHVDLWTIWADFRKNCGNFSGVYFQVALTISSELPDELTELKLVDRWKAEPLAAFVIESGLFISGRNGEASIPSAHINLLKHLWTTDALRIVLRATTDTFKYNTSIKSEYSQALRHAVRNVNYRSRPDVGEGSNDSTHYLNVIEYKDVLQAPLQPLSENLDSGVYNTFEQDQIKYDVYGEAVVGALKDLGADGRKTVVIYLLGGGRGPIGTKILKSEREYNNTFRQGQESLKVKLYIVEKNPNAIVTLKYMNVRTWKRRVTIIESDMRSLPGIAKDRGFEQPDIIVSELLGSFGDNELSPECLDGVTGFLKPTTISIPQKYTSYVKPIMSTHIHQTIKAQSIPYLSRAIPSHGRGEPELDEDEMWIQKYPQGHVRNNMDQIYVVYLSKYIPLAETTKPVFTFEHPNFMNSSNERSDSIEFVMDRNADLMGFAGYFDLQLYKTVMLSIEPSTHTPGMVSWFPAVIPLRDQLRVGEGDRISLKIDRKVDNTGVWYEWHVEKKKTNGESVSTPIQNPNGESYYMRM
Method: The 250-μL reaction mixtures from a same row contained 50 mM phosphate buffer pH=7.60, 1 mM βME, 10% glycerol, 4 μM coupling deaminase TM0936, 300 nM CePRMT5 and various peptide concentrations (5-180 μM; in the first well, peptide acceptor was omitted to account for background signal—natural decomposition of SAM). The methyltransfer reactions started upon addition of SAM (25 μM saturating final concentration) and absorbance was recorded.
The 250-μL reaction mixtures from a same row contained 50 mM phosphate buffer pH=7.60, 1 mM βME, 10% glycerol, 4 μM coupling deaminase TM0936, 300 nM CePRMT5 and various SAM concentrations (2.35-47.0 μM). […] Initial rates were first corrected for background signal, then plotted against SAM concentrations and fitted to the Morrison kinetic model to yield corresponding kinetic parameters.
(§1) Kinetic behavior for 8-aza-SAM against MTases (acceptor sat.)—Briefly, kinetic parameters were determined at 20° C. in a UV-Star 96-well flat bottom plate (Greiner Bio-One, #655801) by continuous monitoring of absorbance at 282 nm using a SpectraMax M5 instrument (Molecular Devices). As for SAM experiments, the measurements consisted of two experimental subsets: MTase reactions (both 8-aza-SAM and acceptor added) and MTase blanks (8-aza-SAM was added without acceptor to account for natural 8-aza-SAM decomposition). The 250-μL (60-μL) reaction mixtures from a same row contained 50 mM phosphate buffer pH=7.60 (7.80), 1 mM βME, 10% glycerol (5% glycerol, 100 μM MgCl2), 4 μM coupling deaminase TM0936, either 1.5 μM CePRMT5 or 402 nM TbPRMT7 (or 610 nM GsSDMT) and various 8-aza-SAM concentrations. […] Initial rates were first corrected for background signal, then plotted against 8-aza-SAM concentrations and fitted to the Michaelis-Menten equation to yield corresponding kinetic parameters.

TbPRMT7 [4] = molecular target: T3, TbPRMT7 (Trypanosoma brucei brucei, UniProt Q582G4); assay: Fluorescence-based coupled assay, TbPRMT7 with 8-aza-SAM cofactor; type: biochemical; details: 8-aza-SAM 25.0 μM, pH=7.60, fluorescence-mode
T3 construct: made in house
T3 sequence (Q582G4 whole entry): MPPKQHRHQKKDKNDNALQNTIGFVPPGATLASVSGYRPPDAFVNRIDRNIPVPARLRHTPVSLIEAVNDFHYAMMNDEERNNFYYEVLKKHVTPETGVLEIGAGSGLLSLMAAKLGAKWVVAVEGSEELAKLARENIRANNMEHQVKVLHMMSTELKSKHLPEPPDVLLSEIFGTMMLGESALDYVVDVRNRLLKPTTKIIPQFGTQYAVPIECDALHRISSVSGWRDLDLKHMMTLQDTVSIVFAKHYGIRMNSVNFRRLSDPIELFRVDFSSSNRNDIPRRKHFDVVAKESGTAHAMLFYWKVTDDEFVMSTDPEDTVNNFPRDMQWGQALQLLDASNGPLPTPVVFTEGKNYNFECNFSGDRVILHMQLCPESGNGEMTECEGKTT
Method: Briefly, the 250-μL reaction mixtures from a same row contained 25 mM phosphate buffer pH=7.60, 1 mM βME, 10% glycerol, 4 μM coupling deaminase TM0936, 805.2 nM TbPRMT7 and various peptide concentrations (0-144.55 μM. The first well contained only 8-aza-SAM without any coupling enzyme, nor methyltransferase; in the second well, peptide acceptor was omitted to account for background signal—natural decomposition of 8-aza-SAM). […]

TbPRMT7 [5] = molecular target: T3, TbPRMT7; assay: 1-Step EZ-MTase UV-based coupled assay, TbPRMT7 kinetics (incl. ionic strength); type: biochemical; details: pH=7.60, 25 mM phosphate, co-substrate saturating
Method: Briefly, the 250-μL reaction mixtures from a same row contained 25 mM phosphate buffer pH=7.60, 1 mM βME, 10% glycerol, 4 μM coupling deaminase TM0936, 1.0 μM TbPRMT7 and various peptide concentrations (16.6-243.3 μM; in the first well, peptide acceptor was omitted to account for background signal—natural decomposition of SAM). Reactions started upon addition of SAM (25.8 μM saturating final concentration) and absorbance was recorded. […] Fit to the Michaelis-Menten model (Eq. 5) provided corresponding kinetic parameters:
Briefly, the measurements consisted of two experimental subsets: MTase reactions (both SAM and peptide added) and MTase blanks (SAM was added without peptide to account for natural SAM decomposition). The 250-μL reaction mixtures from a same row contained 25 mM phosphate buffer pH=7.60, 1 mM βME, 10% glycerol, 4 μM coupling deaminase TM0936, 402 nM TbPRMT7 and various SAM concentrations (1.53-20.0 μM). […] Initial rates were first corrected for background signal, then plotted against SAM concentrations and fitted to the Morrison kinetic model to yield corresponding kinetic parameters.
as §1, with “parameters. The kinetic data from CePRMT5 were fit to the following Eq. 6 to reflect substrate inhibition observed at higher 8-aza-SAM concentration:” for “parameters.”
Experiments were conducted following TbPRMT7 protocol above. Briefly, the 250-μL reaction mixtures from a same row contained either 25, 50, 75 or 100 mM phosphate buffer pH=7.60, 1 mM βME, 10% glycerol, 4 μM coupling deaminase TM0936, 1.0 μM TbPRMT7 and various peptide concentrations (16.6-243.3 μM; in the first well, peptide acceptor was omitted to account for background signal—natural decomposition of SAM). Reactions started upon addition of SAM (25.8 μM saturating final concentration) and absorbance was recorded. […] The four fits to the Michaelis-Menten equation (kcat fixed at 29 h^−1) provided corresponding Km values and established impact of ionic strength onto this kinetic parameter.

CePRMT5 [6] = molecular target: T2, CePRMT5; details: lit. (46); cited from earlier work
deaminase PA3170 = assay: Deamination of 5DOA by PA3170; type: biochemical, Pseudomonas aeruginosa
Excerpt: FIG. 3A-3C. The reaction catalyzed by deaminase PA3170 and its use as a coupling enzyme for monitoring radical SAM (RS) enzymes activity. (A) The 5′-deoxy-adenosine (5DOA) by-product of radical SAM enzyme reactions is efficiently converted into its inosyl-derivative (5DOI) by the deaminase PA3170. (B) The […] conversion is confirmed by HPLC as these two molecules have distinct retention times. The different spectral signatures between 5DOA and 5DOI (λmax1=259 nm and λmax2=249 nm, respectively) allow continuous monitoring of […] through UV-detection.

GsSDMT = molecular target: T4, GsSDMT (Galdieria sulphuraria, UniProt M2XPA0); assay: GsSDMT inhibition by sinefungin (UV-mode); type: biochemical; details: pH=6.80, SAM 763 μM, sarcosine 5 mM, 195 nM GsSDMT; read-out: inhibition constant Ki
T4 sequence (M2XPA0 2-297): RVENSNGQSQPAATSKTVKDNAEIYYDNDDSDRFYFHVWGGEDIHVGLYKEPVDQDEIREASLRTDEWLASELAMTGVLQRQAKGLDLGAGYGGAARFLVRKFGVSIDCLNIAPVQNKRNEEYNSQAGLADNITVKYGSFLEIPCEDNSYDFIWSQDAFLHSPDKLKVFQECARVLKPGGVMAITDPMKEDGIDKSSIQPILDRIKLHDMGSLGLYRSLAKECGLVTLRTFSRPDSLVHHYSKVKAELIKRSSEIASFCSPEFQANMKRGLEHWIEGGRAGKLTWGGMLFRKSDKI
Method: Briefly, kinetic parameters were determined at 20° C. in a UV-Star 96-well flat bottom plate (Greiner Bio-One, #655801) by continuous monitoring of absorbance at 263 nm using a SpectraMax M5 instrument (Molecular Devices). The 100-μL reaction mixtures from a set of two rows contained 100 mM phosphate buffer pH=6.80, 1 mM βME, 5% glycerol, […] MgCl2, 4 μM coupling deaminase TM0936, 195 nM GsSDMT, saturating level of SAM (763 μM) and various sinefungin concentrations (0.8-244 μM). In the first row, the sarcosine acceptor was omitted to account for background signal (i.e. natural catabolism of sinefungin and SAM decomposition). The methyltransfer reactions started upon addition of sarcosine (5 mM saturating final concentration). Volumes (60-μL) were transferred onto plate and absorbance signals were recorded. The initial rates of the reactions were corrected using data from first row experiments and plotted against sinefungin concentrations. Fit to the following Eq. 7 provided corresponding inhibition constant (Ki):
where V and V0 are the initial velocity with and without inhibitor, respectively. The Michelis constant for SAM substrate is depicted as Km and [SAM] is the concentration of this same molecule. The inhibition constant for sinefungin is represented by Ki and [SIN] is the concentration of this inhibitor. The parameter γ is the Hill coefficient. […]

Chain of GNMT (P13255 whole entry): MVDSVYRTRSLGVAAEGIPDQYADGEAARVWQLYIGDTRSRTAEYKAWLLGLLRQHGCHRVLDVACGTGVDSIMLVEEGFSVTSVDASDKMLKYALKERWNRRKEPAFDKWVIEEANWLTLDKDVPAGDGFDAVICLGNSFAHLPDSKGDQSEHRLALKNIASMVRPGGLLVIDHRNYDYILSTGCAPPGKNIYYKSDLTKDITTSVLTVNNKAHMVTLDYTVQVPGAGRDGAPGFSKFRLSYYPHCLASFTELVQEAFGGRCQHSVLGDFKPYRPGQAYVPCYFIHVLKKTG

**Q.** For `NCC(=O)O` [glycine], which Km (GNMT) is on record?
**A.** Its Km is 130 µM.

**Q.** For “H3(1-20): H3(1-20) peptide harboring a N-terminal biotinylation, from previous report”, which Km (NcDIM-5 [1]) is on record?
**A.** The Km was 7.4 µM.

**Q.** And the kcat (NcDIM-5 [1])?
**A.** Its kcat is 0.0383 s⁻¹.

**Q.** What about the overall catalytic efficiency (NcDIM-5 [2]) of the same compound?
**A.** Its overall catalytic efficiency is 19 µM⁻¹ h⁻¹.

**Q.** Which results are given for “H4(1-20): H4(1-20) peptide substrate for CePRMT and TbPRMT7, purchased from GenScript”?
**A.** Km (CePRMT5 [3]): 26 ± 2 µM; kcat (CePRMT5 [3]): 0.00914 ± 0.00022 s⁻¹; Km (TbPRMT7 [4]): 71 ± 8 µM; kcat (TbPRMT7 [4]): 0.0108 ± 0.00056 s⁻¹; Km (TbPRMT7 [5]): 39 ± 3 µM; kcat (TbPRMT7 [5]): 0.00783 ± 0.00019 s⁻¹; Km (CePRMT5 [6]): 54 ± 4 µM; kcat (CePRMT5 [6]): 0.00794 ± 0.00019 s⁻¹

**Q.** With `C[C@H]1O[C@@H](n2cnc3c(N)ncnc32)[C@H](O)[C@@H]1O` [5DOA, 5′-deoxy-adenosine] as the compound, how does the “conversion into 5DOI by PA3170” value (deaminase PA3170) read?
**A.** The value was “full conversion”.

**Q.** With `Nc1ncnc2c1ncn2[C@@H]1O[C@H](C[C@@H](N)CC[C@H](N)C(=O)O)[C@@H](O)[C@H]1O` [sinefungin] as the compound, how does the Ki (GsSDMT) read?
**A.** Its Ki is 1800 ± 400 nM.
